Measurements: paper doi:10.1101/2021.12.29.474488 (bioRxiv, 2021)

B1: MgtE transmembrane (TM) domain from Thermus thermophilus (domain or fragment, T. thermophilus, UniProt Q5SMG8 268-450, looked up)
chain: VPDLVYSEAGPVALWLARVRWLVILILTGMVTSSILQGFESVLEAVTALAFYVPVLLGTGGNTGNQSATLIIRALATRDLDLRDWRRVFLKEMGVGLLLGLTLSFLLVGKVYWDGHPLLLPVVGVSLVLIVFFANLVGAMLPFLLRRLGVDPALVSNPLVATLSDVTGLLIYLSVARLLLEAV

Tests used:
[1] = biological target: MgtE T336C/L421C mutant lacking the N domain (T. thermophilus) (UniProt Q5SMG8); experiment: cross-linking
[2] = biological target: the molecule itself; experiment: crystal structure

| Molecule | stoichiometry N [1] | binding result [2] |
| --- | --- | --- |
| MgtE T336C/L421C mutant lacking the N domain (from UniProt Q5SMG8 130-450) (domain or fragment) | 2 |  |
| B1 |  | binds |
